Results published in patent US20040082496.

Experiments:
[1] = test system: T1, Mca-Ala-Pro-(Dnp)Lys-OH (AnaSpec MIPH1)
T1 sequence: APK

[2] = test system: T2, Mca-Tyr-Val-Ala-Asp-Ala-Pro-(Dnp)Lys-OH (Caspase 1 substrate, Bachem M-2195)
T2 sequence: YVADAPK

Neurotensin (1-13) = Neurotensin (1-13) (UniProt P30990)
[3] = test system: T1, Mca-Ala-Pro-(Dnp)Lys-OH (AnaSpec MIPH1); assay: fluorogenic substrate cleavage by purified ACE-2, microtitre plate
[4] = test system: T2, Mca-Tyr-Val-Ala-Asp-Ala-Pro-(Dnp)Lys-OH (Caspase 1 substrate, Bachem M-2195); assay: as above

“secreted ACE-2 purified from CHO K1 cell supernatant (expression vector pMD37)” was tested, and the “hydrolysis followed by mass spectroscopy” value ((Des-Arg^9) Bradykinin) was “ACE-2 can hydrolyze des-Arg bradykinin”, the “hydrolysis followed by mass spectroscopy” value (Angiotensin I(1-10)) was “When treated with ACE-2, mass spectroscopy data shows that Angiotensin I (1-10) is converted to Angiotensin I (1-9)” and the kcat/Km [1] was 230000 M⁻¹ s⁻¹. For the same substance, the “hydrolysis followed by mass spectroscopy” value [2] was “ACE-2 hydrolysed this substance between the P1 proline and P1′ (DNP)Lys”, the kcat/Km [2] was 42000 M⁻¹ s⁻¹ and the “hydrolysis followed by mass spectroscopy” value (Neurotensin (1-13)) was “ACE-2 hydrolyzes Neurotensin (1-13) to Neurotensin (1-12)”. The Km [3] was 340 µM and the Km [4] was 130 µM.
